Laboratory results reported in paper PMC7511232 (eLife, 2020).
Blank lines part the entries; values can stand above or below the binder they belong to.

Columns and labels:
[1] = target: HA-fused Atg1(593-830) (S. pombe, UniProt Q9Y7T4 593-830); test: pull-down
[2] = target: the molecule itself; test: SEC

Sequence of HA-fused Atg1(593-830) (Q9Y7T4 593-830): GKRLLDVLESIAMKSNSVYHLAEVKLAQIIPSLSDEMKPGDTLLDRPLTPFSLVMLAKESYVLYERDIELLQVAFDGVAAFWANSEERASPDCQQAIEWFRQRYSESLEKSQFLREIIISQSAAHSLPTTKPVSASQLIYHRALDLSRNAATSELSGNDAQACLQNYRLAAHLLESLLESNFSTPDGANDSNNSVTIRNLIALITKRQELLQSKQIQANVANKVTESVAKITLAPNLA

binding result [1]: binds
Binder: SSQPFYRVSPSIVPLNVIRKLTN (domain or fragment, S. pombe, UniProt O14261 522-544, looked up) [GST-fused Atg11(522-544)]

B1: MBP-Atg11(522-583) (domain or fragment, S. pombe, UniProt O14261 522-583, looked up)
chain: SSQPFYRVSPSIVPLNVIRKLTNRKTSFTDSHILRLQDEVNQLRNELDLVNKRNEDLLIELQ
stoichiometry N [2]: 2
